Data published in patent US20080125498A1, “TREATMENT OF NEURODEGENERATIVE DISEASES AND CONDITIONS USING PAR1 ANTAGONISTS” (priority 2001, published 2008).

Test system: PAR1
Test: PI hydrolysis in hippocampal slices
Type: cell-based, mouse
Source text: PAR1 is a seven transmembrane G-protein coupled receptor that stimulates G-alpha-q to initiate phosphatidyl inositol (PI) hydrolysis. To ensure that PAR1 is functional in regions of the brain that are subject to ischemic damage in the mouse transient focal ischemia model, we tested the ability of several activators of PAR1 to initiate PI hydrolysis (Chung et al., 1997) in the hippocampus and striatum.
Since tPA activates plasminogen to form plasmin, we tested whether exogenously applied tPA could activate endogenous plasminogen in brain slices to form plasmin and activate PAR1.

[1] = wild type hippocampus / hippocampal slices

B1: tPA: tissue plasminogen activator; activates plasminogen to form plasmin; thrombolytic agent (protein, UniProt P00750 36-562, looked up)
Tissue-type plasminogen …: SYQVICRDEKTQMIYQQHQSWLRPVLRSNRVEYCWCNSGRAQCHSVPVKSCSEPRCFNGGTCQQALYFSDFVCQCPEGFAGKCCEIDTRATCYEDQGISYRGTWSTAESGAECTNWNSSALAQKPYSGRRPDAIRLGLGNHNYCRNPDRDSKPWCYVFKAGKYSSEFCSTPACSEGNSDCYFGNGSAYRGTHSLTESGASCLPWNSMILIGKVYTAQNPSAQALGLGKHNYCRNPDGDAKPWCHVLKNRRLTWEYCDVPSCSTCGLRQYSQPQFRIKGGLFADIASHPWQAAIFAKHRRSPGERFLCGGILISSCWILSAAHCFQERFPPHHLTVILGRTYRVVPGEEEQKFEVEKYIVHKEFDDDTYDNDIALLQLKSDSSRCAQESSVVRTVCLPPADLQLPDWTECELSGYGKHEALSPFYSERLKEAHVRLYPSSRCTSQHLLNRTVTDNMLCAGDTRSGGPQANLHDACQGDSGGPLVCLNDGRMTLVGIISWGLGCGQKDVPGVYTKVTNYLDWIRDNMRP
- PI hydrolysis (plasminogen-deficient mice): did not increase PI hydrolysis
- PI hydrolysis [1]: significantly increased PI hydrolysis

B2: plasmin: serine protease involved in blood clotting that can activate PAR1 (protein, UniProt P00747 20-580; P00747 581-810, looked up)
Plasmin heavy chain A: EPLDDYVNTQGASLFSVTKKQLGAGSIEECAAKCEEDEEFTCRAFQYHSKEQQCVIMAENRKSSIIIRMRDVVLFEKKVYLSECKTGNGKNYRGTMSKTKNGITCQKWSSTSPHRPRFSPATHPSEGLEENYCRNPDNDPQGPWCYTTDPEKRYDYCDILECEEECMHCSGENYDGKISKTMSGLECQAWDSQSPHAHGYIPSKFPNKNLKKNYCRNPDRELRPWCFTTDPNKRWELCDIPRCTTPPPSSGPTYQCLKGTGENYRGNVAVTVSGHTCQHWSAQTPHTHNRTPENFPCKNLDENYCRNPDGKRAPWCHTTNSQVRWEYCKIPSCDSSPVSTEQLAPTAPPELTPVVQDCYHGDGQSYRGTSSTTTTGKKCQSWSSMTPHRHQKTPENYPNAGLTMNYCRNPDADKGPWCFTTDPSVRWEYCNLKKCSGTEASVVAPPPVVLLPDVETPSEEDCMFGNGKGYRGKRATTVTGTPCQDWAAQEPHRHSIFTPETNPRAGLEKNYCRNPDGDVGGPWCYTTNPRKLYDYCDVPQCAAPSFDCGKPQVEPKKCPGR
Plasmin light chain B: VVGGCVAHPHSWPWQVSLRTRFGMHFCGGTLISPEWVLTAAHCLEKSPRPSSYKVILGAHQEVNLEPHVQEIEVSRLFLEPTRKDIALLKLSSPAVITDKVIPACLPSPNYVVADRTECFITGWGETQGTFGAGLLKEAQLPVIENKVCNRYEFLNGRVQSTELCAGHLAGGTDSCQGDSGGPLVCFEKDKYILQGVTSWGLGCARPNKPGVYVRVSRFVTWIEGVMRNN
modifications: plasmin
- PI hydrolysis [1]: increased PI hydrolysis

B3: alpha-2-antiplasmin: plasmin inhibitor (protein, UniProt P08697 40-491, looked up)
Alpha-2-antiplasmin: NQEQVSPLTLLKLGNQEPGGQTALKSPPGVCSRDPTPEQTHRLARAMMAFTADLFSLVAQTSTCPNLILSPLSVALALSHLALGAQNHTLQRLQQVLHAGSGPCLPHLLSRLCQDLGPGAFRLAARMYLQKGFPIKEDFLEQSEQLFGAKPVSLTGKQEDDLANINQWVKEATEGKIQEFLSGLPEDTVLLLLNAIHFQGFWRNKFDPSLTQRDSFHLDEQFTVPVEMMQARTYPLRWFLLEQPEIQVAHFPFKNNMSFVVLVPTHFEWNVSQVLANLSWDTLHPPLVWERPTKVRLPKLYLKHQMDLVATLSQLGLQELFQAPDLRGISEQSLVVSGVQHQSTLELSEVGVEAAAATSIAMSRMSLSSFSVNRPFLFFIFEDTTGLPLFVGSVRNPNPSAPRELKEQQDSPGNKDFLQSLKGFPRGDKLFGPDLKLVPPMEEDYPQFGSPK
- inhibition of tPA-induced increase in PI hydrolysis (wild type hippocampal slices): inhibited the tPA-induced increase in PI hydrolysis
